Laboratory results from patent US9988424 (DUKE UNIVERSITY, dated 2018).
Where two headings read alike, the source gives them in different places.

Experiments:
Assay in all cases: ELISA, OD405 at 10 ug/ml
D.9009SA V1/V2 tags [1] = molecular target: D.9009SA V1/V2 tags
SIV CPZ US-1 gp140CF [2] = molecular target: T1, SIV CPZ US-1 gp140CF (SIVcpz)
T1 construct: also called US-1 SIVCPZ gp140CF
T1 chain: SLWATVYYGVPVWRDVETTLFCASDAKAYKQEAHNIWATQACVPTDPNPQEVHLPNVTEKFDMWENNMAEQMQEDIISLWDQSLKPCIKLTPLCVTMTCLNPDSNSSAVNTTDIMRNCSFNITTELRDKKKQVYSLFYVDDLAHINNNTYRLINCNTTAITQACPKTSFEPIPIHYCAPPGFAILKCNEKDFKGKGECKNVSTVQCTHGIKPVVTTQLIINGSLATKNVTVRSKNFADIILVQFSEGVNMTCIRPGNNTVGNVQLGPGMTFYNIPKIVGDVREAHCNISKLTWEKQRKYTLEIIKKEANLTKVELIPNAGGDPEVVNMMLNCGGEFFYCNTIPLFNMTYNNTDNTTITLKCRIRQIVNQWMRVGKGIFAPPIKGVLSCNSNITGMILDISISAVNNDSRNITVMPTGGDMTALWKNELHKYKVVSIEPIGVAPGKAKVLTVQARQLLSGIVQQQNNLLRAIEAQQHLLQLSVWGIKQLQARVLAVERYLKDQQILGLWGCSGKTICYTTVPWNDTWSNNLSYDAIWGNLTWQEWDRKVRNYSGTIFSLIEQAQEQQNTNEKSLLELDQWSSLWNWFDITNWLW

B.040 gp140C [3] = molecular target: B.040 gp140C
C.1086 gp140 = molecular target: T2, C.1086 gp140
T2 construct: also called C.1086gp140C

AE.A244 V1V2 Tags = AE.A244 V1V2 Tags (HIV-1)
gp70 C.1086 V1/V2 = molecular target: T3, gp70 C.1086 V1/V2 (HIV-1 V1V2 on murine leukemia virus gp70)
T3 construct: also called C.gp70 1086C V1V2; C.1086gp70V1V2
T3 chain: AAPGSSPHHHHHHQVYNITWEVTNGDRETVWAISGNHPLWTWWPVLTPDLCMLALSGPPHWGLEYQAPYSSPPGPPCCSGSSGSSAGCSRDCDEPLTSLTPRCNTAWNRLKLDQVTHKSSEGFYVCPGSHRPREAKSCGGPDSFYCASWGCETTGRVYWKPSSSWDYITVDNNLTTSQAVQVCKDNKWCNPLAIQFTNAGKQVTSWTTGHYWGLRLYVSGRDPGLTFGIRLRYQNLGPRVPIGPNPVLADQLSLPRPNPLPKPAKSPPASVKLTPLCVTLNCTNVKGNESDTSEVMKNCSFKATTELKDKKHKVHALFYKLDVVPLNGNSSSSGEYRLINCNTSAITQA

D.9009SA V1/V2 tags [4] = molecular target: D.9009SA V1/V2 tags; remark: listed apart in the source
B.9021 gp140C = B.9021 gp140C (HIV-1)
A.9004SS V1/V2 tags = molecular target: T4, A.9004SS V1/V2 tags
T4 V1V2 tags construct: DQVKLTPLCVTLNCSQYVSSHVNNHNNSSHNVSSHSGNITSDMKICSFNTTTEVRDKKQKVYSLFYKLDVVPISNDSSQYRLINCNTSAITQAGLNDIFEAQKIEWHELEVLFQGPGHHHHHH

B.Case A2 V1/V2 tags = molecular target: B.Case A2 V1/V2 tags
Con 6 gp120 = molecular target: Con 6 gp120
B.con gp140CF = molecular target: B.con gp140CF
G.con gp140CF = molecular target: G.con gp140CF
AE.97CNG2XF gp140CF = molecular target: T5, AE.97CNG2XF gp140CF (HIV-1)
T5 construct: also called E.97CNGX2F gp140CF

A.Q23 V1V2 tags = A.Q23 V1V2 tags (HIV-1)
C.CAP206 gp140CF.12 = C.CAP206 gp140CF.12 (HIV-1)
B.62357 gp140C = molecular target: T6, B.62357 gp140C
T6 construct: also called B.62357 140C

B.HXB/BAL gp140CFI = molecular target: T7, B.HXB/BAL gp140CFI (HIV-1, UniProt P04578 33-680)
T7 construct: also called B.HxB/Ba gp140 CFI

SIV CPZ US-1 gp140CF [5] = molecular target: T1, SIV CPZ US-1 gp140CF
AE.con gp140CF = molecular target: AE.con gp140CF
B.040 gp140C [6] = molecular target: B.040 gp140C; remark: listed apart in the source
AE.A244 gp120 delta 11 = molecular target: T8, AE.A244 gp120 delta 11 (HIV-1)
T8 construct: also called E.A244gp120Δ11; AE.A244 Δ11 gp120

B.63521_V1/V2 tags = molecular target: B.63521_V1/V2 tags
C.1086 V1V2 Tags = C.1086 V1V2 Tags (HIV-1)

Measured: binding result

B1: PG16 (antibody, V domains shown)
VH: QEQLVESGGGVVQPGGSLRLSCLASGFTFHKYGMHWVRQAPGKGLEWVALISDDGMRKYHSDSMWGRVTISRDNSKNTLYLQFSSLKVEDTAMFFCAREAGGPIWHDDVKYYDFNDGYYNYHYMDVWGKGTTVTVSS
VL: QSALTQPASVSGSPGQTITISCNGTSSDVGGFDSVSWYQQSPGKAPKVMVFDVSHRPSGISNRFSGSKSGNTASLTISGLHIEDEGDYFCSSLTDRSHRIFGGGTKVTVL
notes: also called mAb PG16; bnAb PG16
no binding (tested: 10 ug/ml): D.9009SA V1/V2 tags [1] | SIV CPZ US-1 gp140CF [2] | B.040 gp140C [3]

B2: PG9 reverted unmutated ancestor antibody (antibody, V domains shown)
VH: QVQLVESGGGVVQPGRSLRLSCAASGFTFSSYGMHWVRQAPGKGLEWVAVISYDGSNKYYADSVKGRFTISRDNSKNTLYLQMNSLRAEDTAVYYCAREAGGPDYRNGYNYYDFWSGYYNYYYMDVWGKGTTVTVSS
VL: QSALTQPASVSGSPGQSITISCTGTSSDVGSYNLVSWYQQHPGKAPKLMIYEVSKRPSGVSNRFSGSKSGNTASLTISGLQAEDEADYYCCSLTSTRRWVFGGGTKLTVL
notes: also called PG9 RUA; PG9_RUA
no binding (tested: 10 ug/ml): C.1086 gp140 | AE.A244 V1V2 Tags | gp70 C.1086 V1/V2 | D.9009SA V1/V2 tags [4] | B.9021 gp140C | A.9004SS V1/V2 tags | B.Case A2 V1/V2 tags | Con 6 gp120 | B.con gp140CF | G.con gp140CF | AE.97CNG2XF gp140CF | A.Q23 V1V2 tags | C.CAP206 gp140CF.12 | B.62357 gp140C | B.HXB/BAL gp140CFI | SIV CPZ US-1 gp140CF [5] | AE.con gp140CF | B.040 gp140C [6] | AE.A244 gp120 delta 11 | B.63521_V1/V2 tags | C.1086 V1V2 Tags
